# Literature values, collected in paper PMC4792251.
# Like-named read-outs stand apart in the source and are kept apart here.
# Tests used:
# [1] = biological target: Mcl-1 (Homo sapiens) (UniProt Q07820)
# [2] = biological target: BHRF1 (Epstein-Barr virus) (UniProt P03182)
# [3] = biological target: Mcl-1 (Homo sapiens) (UniProt Q07820); remark: listed apart in the source
# UniProt Q07820, sequence (Q07820 whole entry): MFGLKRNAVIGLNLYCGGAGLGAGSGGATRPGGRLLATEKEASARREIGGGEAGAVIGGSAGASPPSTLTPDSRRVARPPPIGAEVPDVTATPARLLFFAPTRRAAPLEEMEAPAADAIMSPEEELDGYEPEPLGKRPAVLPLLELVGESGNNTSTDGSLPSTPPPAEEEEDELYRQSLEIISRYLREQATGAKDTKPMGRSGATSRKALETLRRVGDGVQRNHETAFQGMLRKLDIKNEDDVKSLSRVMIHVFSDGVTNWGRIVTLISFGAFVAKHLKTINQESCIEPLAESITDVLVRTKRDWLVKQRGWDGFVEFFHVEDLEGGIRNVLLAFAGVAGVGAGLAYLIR
# Bid BH3 peptide, sequence (P55957 80-99): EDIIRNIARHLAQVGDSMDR
# Noxa B BH3 peptide, sequence (Q9JM54 68-87): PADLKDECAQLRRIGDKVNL
# UniProt P03182, sequence (P03182 whole entry): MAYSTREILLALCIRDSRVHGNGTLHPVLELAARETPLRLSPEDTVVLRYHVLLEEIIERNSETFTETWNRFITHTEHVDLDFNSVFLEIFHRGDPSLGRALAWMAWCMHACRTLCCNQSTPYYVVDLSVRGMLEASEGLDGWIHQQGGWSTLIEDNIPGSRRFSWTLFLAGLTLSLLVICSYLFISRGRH
Substance,Kd [1] [nM],Kd [2] [nM],Kd [3] [nM]
Bid BH3 peptide,< 10,99,
Noxa B BH3 peptide,,,28
